# Columns and labels:
# [1] = target: T1, ether-a-go-go 1 voltage-gated potassium channel (hEAG1) (human) (UniProt O95259)
# T1 sequence: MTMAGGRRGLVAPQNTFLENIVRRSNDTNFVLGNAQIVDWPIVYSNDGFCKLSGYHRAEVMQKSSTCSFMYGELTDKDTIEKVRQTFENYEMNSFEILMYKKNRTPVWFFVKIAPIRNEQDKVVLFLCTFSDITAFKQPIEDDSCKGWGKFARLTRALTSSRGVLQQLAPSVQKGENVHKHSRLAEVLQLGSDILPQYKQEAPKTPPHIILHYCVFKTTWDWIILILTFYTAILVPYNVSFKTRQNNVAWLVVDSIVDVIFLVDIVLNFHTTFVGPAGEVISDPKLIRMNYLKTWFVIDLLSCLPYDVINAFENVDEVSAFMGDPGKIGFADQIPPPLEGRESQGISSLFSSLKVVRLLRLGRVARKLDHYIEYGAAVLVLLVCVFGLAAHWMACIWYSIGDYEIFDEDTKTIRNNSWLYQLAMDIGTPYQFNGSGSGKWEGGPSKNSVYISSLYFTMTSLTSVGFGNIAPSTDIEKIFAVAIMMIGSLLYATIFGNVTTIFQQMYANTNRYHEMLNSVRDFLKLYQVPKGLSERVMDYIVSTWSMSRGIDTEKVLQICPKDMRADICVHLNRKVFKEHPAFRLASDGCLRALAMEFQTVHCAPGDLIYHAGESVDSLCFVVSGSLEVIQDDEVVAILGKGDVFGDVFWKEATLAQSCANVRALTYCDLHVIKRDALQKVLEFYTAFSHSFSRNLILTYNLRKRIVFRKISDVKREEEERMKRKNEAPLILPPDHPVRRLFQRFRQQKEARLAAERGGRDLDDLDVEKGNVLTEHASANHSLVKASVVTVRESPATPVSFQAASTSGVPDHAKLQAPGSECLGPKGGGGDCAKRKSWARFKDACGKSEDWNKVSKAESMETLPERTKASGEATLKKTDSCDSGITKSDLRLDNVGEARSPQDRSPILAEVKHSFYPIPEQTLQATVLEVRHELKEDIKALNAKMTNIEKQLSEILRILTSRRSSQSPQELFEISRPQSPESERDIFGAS
# [2] = target: T1, ether-a-go-go 1 voltage-gated potassium channel (hEAG1) (human); remark: listed apart in the source
Substance,"inhibition of hEAG1 current at 5 µM (two-electrode voltage clamp, Xenopus laevis oocytes) [1] [%]","IC50 of inhibition of hEAG1 current (two-electrode voltage clamp, Xenopus laevis oocytes) [2] [µM]"
gyroxin_B1.3 (from UniProt B0FXM1 25-262) (enzyme),58,–
BjSP (from UniProt Q5W959 25-258) (enzyme),9.2,–
mutant collinein-1 (His43Arg) (enzyme),–,4.3
native collinein-1 (enzyme),–,4.2
recombinant collinein-1 (enzyme),–,2.5
